According to patent publication US20100075897A1, “METHOD FOR S[…] BIOACTIVE PEPTIDES AND APPLICATION THEREOF” (JINAN UNIVERSITY, priority 2008, published 2010):
Ends that are not written are not given here.

How the values were obtained:
[1] = target: T1, human serum albumin (human, UniProt P02768 25-609); assay: SPR (BIAcore 3000), HSA on CM5 chip, polypeptide injected, 1:1 model
T1 construct: Bought protein; coated on plates (ELISA) or coupled to a CM5 chip (SPR); also called HSA; human albumin
Description: Signal of conjugated channel subtracted by that of unconjugated channel of injected solution was calculated as the amount of bound peptides during a defined period, as shown in FIG. 4. PBS buffer containing 0.05% Tween-20 was used for dilution of all samples. SPR curve was evaluated by BIAcore™ kinetics evaluation software (Version 4.1). […] Kd was calculated from binding rate (kₒₙ) and dissociating rate (koff), i.e. dissociation constant.

[2] = target: T1, human serum albumin; assay: phage ELISA on plate-coated HSA, sample row, dilution column 3 of 12

T1 sequence (P02768 25-609 limits assumed): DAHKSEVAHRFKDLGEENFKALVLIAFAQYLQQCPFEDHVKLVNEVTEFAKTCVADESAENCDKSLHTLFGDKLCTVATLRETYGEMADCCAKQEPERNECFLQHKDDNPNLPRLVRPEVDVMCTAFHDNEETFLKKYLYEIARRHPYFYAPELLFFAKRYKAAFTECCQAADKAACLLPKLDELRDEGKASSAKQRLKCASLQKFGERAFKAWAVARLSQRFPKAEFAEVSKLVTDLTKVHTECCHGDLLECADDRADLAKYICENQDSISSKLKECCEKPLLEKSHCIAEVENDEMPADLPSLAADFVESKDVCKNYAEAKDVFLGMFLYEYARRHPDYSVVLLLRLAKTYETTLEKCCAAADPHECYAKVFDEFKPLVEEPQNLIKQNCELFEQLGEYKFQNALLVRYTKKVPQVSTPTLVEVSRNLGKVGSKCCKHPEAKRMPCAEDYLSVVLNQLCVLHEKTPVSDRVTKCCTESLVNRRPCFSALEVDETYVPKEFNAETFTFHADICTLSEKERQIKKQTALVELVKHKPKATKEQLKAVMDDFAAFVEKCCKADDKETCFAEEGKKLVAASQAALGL

Binder | Kd [1] | absorbance at 405 nm [2]
LPWHLKYREPPR (not fully specified; also: fusion polypeptide ABP-LK-GLP, linker and GLP-1 part not given here, also called ABP-LK-GLP; not shown: rest of DP5.1 (any N-terminal Pro, linker, GLP-1 part) is printed nowhere) [DP5.1 fusion polypeptide] | 4.6 µM | 
DICLPRWGCLWE (not fully specified (bridges); cysteine pairing not given here; also: displayed on M13 phage coat protein, Tested as whole phage particles, not as free peptide; not shown: not described) [Phage ID NO. 3 (M13 phage displaying the peptide of SEQ ID NO. 3, DICLPRWGCLWE)] |  | 0.1
